Test results reported in patent publication US20140079774A1.
Where no end group is shown, it is not given here.

Target: Met (hepatocyte growth factor receptor, c-Met) on Hep3B cells (human) (UniProt P08581)
Experiment: flow cytometry saturation binding on Hep3B (cytochalasin D pre-treated), specific binding after subtraction of binding in saturating HGF; 0.015 wt % MC40 (~6 peptides/particle)

UniProt P08581, sequence (P08581 25-1390): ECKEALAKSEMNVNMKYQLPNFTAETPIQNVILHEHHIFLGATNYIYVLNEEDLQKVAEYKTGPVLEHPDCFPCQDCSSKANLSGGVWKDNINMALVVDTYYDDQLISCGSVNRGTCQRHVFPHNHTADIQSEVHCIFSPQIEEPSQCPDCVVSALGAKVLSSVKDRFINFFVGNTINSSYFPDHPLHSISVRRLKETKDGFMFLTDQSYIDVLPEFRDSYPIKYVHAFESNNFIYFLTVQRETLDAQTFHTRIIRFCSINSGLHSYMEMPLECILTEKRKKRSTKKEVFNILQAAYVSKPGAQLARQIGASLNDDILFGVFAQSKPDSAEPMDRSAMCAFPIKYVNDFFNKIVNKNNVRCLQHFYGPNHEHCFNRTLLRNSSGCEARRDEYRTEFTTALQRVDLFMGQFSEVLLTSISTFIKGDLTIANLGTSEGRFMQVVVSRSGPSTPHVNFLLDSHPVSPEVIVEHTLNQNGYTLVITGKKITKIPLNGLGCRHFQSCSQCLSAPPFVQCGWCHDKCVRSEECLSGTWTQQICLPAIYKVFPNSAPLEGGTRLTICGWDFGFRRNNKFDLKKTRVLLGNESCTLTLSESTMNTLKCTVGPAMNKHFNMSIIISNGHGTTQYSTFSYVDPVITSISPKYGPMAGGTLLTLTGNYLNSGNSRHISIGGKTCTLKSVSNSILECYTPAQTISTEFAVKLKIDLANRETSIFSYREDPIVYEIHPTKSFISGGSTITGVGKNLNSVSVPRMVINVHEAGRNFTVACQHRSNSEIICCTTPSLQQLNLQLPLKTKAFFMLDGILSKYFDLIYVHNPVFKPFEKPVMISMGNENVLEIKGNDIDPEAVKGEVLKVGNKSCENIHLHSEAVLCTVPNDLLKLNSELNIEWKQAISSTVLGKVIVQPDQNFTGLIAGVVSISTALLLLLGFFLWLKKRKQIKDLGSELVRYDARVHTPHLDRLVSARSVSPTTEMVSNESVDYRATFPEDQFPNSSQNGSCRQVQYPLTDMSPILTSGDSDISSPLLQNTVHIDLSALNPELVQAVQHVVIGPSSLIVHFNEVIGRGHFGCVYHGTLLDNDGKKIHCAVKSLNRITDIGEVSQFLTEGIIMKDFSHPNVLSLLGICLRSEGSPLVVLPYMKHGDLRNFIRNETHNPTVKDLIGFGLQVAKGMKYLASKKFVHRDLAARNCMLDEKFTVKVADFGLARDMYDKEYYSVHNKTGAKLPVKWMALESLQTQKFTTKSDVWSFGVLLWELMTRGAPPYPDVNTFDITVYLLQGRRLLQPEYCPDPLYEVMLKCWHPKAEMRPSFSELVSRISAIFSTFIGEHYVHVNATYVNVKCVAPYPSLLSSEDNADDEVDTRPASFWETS

B1: MC40-targeted protocells (mesoporous silica nanoparticle-supported lipid bilayers displaying the MC40 targeting peptide) (peptide, not shown: small tags and cut ends)
peptide: ASVHFPPC
modifications: also: C-terminal Cys conjugated via crosslinker to DOPE in the lipid bilayer of a mesoporous silica protocell
Kd: 1.05 nM
